Target: perlecan purified from Englebreth-Holm-Swarm tumor (UniProt Q05793)
Assay: SPR

Sequence of UniProt Q05793 (Q05793 22-3707): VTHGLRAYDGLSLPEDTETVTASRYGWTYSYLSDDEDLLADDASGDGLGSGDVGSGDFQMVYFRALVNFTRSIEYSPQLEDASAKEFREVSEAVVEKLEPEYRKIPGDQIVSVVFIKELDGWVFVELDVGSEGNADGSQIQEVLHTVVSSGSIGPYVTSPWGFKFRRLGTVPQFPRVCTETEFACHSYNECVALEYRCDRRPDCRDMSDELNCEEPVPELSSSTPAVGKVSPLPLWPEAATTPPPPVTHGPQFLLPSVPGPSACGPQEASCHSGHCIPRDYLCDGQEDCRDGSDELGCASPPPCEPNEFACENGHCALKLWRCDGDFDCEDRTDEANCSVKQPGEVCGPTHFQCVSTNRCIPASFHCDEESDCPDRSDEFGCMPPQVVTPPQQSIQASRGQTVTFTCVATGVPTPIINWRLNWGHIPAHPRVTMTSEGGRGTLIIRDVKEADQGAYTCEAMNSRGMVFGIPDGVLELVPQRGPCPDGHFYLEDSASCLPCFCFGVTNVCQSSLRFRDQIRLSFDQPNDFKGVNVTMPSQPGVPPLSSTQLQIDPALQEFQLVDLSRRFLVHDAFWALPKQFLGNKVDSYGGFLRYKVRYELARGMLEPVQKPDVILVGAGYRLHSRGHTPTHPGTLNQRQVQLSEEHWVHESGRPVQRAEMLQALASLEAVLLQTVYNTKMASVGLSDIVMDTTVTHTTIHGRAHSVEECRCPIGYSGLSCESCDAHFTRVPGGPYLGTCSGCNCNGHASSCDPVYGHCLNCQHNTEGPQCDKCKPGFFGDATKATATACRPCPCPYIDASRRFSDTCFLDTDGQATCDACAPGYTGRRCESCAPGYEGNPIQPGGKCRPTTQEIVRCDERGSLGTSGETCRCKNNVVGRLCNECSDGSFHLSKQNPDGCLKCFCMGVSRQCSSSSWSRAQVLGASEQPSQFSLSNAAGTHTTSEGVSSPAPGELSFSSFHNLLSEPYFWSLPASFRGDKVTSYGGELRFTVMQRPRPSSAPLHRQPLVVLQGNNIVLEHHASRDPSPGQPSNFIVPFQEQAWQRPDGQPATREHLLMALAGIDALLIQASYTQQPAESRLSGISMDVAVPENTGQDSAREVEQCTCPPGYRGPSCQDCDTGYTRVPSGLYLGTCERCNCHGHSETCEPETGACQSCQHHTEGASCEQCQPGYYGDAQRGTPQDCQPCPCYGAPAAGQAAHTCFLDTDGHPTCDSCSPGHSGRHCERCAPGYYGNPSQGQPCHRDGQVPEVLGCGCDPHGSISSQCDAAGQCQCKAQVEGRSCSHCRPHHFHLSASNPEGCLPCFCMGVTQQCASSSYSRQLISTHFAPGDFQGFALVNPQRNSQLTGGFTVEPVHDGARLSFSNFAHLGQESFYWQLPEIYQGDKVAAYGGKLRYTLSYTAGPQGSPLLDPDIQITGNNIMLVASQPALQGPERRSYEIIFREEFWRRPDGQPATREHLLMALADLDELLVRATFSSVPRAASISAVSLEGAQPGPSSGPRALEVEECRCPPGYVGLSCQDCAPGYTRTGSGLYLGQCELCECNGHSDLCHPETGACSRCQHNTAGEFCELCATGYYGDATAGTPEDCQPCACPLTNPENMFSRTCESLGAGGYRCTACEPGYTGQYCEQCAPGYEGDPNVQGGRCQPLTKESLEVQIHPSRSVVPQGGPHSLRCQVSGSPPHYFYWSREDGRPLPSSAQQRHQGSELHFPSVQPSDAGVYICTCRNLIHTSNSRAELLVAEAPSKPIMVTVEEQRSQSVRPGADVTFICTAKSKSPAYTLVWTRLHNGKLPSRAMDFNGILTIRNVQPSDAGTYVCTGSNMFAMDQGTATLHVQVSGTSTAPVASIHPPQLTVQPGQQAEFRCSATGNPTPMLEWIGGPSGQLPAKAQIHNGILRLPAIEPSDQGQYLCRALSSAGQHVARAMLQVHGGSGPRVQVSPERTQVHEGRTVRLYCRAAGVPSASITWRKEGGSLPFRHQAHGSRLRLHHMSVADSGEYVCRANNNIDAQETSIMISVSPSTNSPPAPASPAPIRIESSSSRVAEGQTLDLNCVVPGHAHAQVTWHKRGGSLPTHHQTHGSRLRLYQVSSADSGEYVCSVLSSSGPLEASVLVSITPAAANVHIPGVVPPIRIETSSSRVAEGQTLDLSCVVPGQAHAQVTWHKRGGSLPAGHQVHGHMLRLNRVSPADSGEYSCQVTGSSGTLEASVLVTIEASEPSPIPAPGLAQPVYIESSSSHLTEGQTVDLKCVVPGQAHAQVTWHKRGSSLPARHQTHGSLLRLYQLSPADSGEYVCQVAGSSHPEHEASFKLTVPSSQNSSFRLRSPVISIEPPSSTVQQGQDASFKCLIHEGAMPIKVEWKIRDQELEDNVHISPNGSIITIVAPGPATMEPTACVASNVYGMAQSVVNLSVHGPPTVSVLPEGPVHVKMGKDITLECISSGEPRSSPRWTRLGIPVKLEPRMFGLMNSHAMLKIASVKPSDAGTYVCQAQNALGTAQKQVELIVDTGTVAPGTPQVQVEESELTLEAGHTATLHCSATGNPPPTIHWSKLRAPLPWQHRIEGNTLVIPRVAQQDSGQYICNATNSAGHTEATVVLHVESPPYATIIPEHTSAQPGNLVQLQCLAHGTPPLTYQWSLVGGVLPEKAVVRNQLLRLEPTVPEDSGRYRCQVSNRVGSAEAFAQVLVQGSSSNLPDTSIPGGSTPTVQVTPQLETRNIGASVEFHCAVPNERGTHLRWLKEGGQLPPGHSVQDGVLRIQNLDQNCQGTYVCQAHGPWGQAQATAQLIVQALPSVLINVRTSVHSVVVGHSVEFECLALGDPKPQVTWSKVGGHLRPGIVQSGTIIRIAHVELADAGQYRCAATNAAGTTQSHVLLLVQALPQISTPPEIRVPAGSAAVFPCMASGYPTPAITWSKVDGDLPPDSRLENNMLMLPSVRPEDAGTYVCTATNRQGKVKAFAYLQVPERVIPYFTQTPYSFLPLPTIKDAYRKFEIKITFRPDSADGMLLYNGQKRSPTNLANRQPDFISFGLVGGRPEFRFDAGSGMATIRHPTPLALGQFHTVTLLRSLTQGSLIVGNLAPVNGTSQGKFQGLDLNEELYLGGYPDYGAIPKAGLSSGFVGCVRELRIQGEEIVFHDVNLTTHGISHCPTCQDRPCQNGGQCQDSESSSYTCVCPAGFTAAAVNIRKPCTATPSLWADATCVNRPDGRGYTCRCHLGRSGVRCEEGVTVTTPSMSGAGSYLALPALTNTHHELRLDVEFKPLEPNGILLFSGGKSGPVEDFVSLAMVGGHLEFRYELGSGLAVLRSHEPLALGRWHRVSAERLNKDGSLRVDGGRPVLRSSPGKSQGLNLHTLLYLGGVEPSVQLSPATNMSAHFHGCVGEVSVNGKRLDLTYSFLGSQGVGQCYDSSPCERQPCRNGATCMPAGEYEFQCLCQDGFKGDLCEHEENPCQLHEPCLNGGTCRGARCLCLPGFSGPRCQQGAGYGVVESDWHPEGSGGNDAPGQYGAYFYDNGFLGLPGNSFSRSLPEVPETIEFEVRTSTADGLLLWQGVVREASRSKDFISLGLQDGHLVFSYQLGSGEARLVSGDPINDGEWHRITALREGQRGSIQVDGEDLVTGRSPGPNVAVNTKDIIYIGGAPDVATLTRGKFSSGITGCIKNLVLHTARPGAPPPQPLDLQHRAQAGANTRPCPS

## quail A12 collagenic-tailed acetylcholinesterase (asymmetric form) (complex)
  fold change in RU over the G2/G4 value: 270 fold

From article PMC2133180
